experiment: soluble on expression in E. coli; label from the status in PepcDB or PDB records

Sequence | soluble on expression in E. coli
MSLNPVNGAILSIEISHPNGFEIDENISAYHDAEYYMDRIFDSGNYDSLIVLTSIKILSQHWEIDNDMVVTSQSIRQLAIDTINSKAESGTIKNYWFKLQSLCEEFKNLSQETLSLSVFDNQVLTLNVNGHGIFRKSAFFESFANQKLNSADGKLMLIFNKFETFISRKSYHKLHEELLQLRKISANEITNLFTKHIEGKISTNEIQTILKDLEQIPGIVEIVKSLIGSSGFELIVDANSISSKELGAFHKISTVMIFKNIMETHKTLLLDLVVLFLTCETNDQIVEFVNQIRATLVQYDVMEVVFTTCLNKGEVETKNMGQVQNSIFWSSVVATHSQLKRLIESLQLNDGYEYFYNNVLPDDYLVDVVIELINNKEYFFLQKKFLTKLNQENKVEKLLVGLIYLFNNDVKSFYKIFNDYSNFQNFTENKIKNLNQDVNLQKFIEALLSNPSKSQYFHGLSKLVQSQIKTNDNKSQQEEHCFIEIASDFETLAIENEGHHHHHH | soluble
MNSAWALLRLASPQLPIGGYSYSQGLEMAVEQSIVIDPQTAGRWIGDQLLLNLARFEAPLLLAHCEAAAVGDWGQLLQVSEQHRASRETRELHQESRQMGYSLQQLLNGLPELDRDARRFLEQTTEPHLALGWALAARTWRISPQDALAAWLWSWLENQLAVLMKTLPLGQQAAQRLTSELLPLLQQAQVNASAQDTHPAGSAAFGLALASMAHERQYSRLFRS | soluble
GSHNLACPTPKEDGLAQQQTQLNLRSLLVNPEGPTLMRLNSVQSSERPLFLVHPIEGSTTVFHSLASRLSIPTYGLQCTRAAPLDSIHSLAAYYIDCIRQVQPEGPYRVAGYSYGACVAFEMCSQLQAQQSPAPTHNSLFLFDGSPTYVLAYTQSYRAKLTPGCEAEAETEAICFFVQQFTDMEHNRVLEALLPLKGLEERVAAAVDLIIKSHQGLDRQELSFAARSFYYKLRAAEQYTPKAKYHGNVMLLRAKTGGAYGEDLGADYNLSQVCDGKVSVHVIEGDHRTLLEGSGLESIISIIHSSLAEPRVSVREG | soluble
MSLESPQTQSEISIHQLVVGKPANDGNIPAQCELLRCSLQEGMDILLWRGHFARPETLQLHDDLGRINFSCILEGTSRFAIQGLRRHTDWELARNRHYITHTPDCRGSASYCGRFESITLSFSPETLALWVPDISAVIKNKIDSHCCCQQQRCNAETHLTAQALRHALMRMHGGFSHEQKPSTLWLQGQSLVMLSLVLDEHREDASCLSCHFNPMERQKLLRAKDLLLADLTQAPGVAELARESGLSVLKIKRGFRVLFNNSVYGLFQAERMQEARRRLANGNTSVMTVAADLGYANASHFSAAFQKQFGVTPSTFKRGEGHHHHHH | not soluble
MRVLIRSSASGSEYWDTEEKRNVFVPKGQEPDFEVTENPESMLSKEADLHVGGLPITVGNVTIDTDGIKGERLLTTASAADDEEQDELVPSDDESVVLEEMNVKELREYAKRKGIEIPSAVRAKGEILNIIKESE | not soluble
SEHWQAGRFIGQQTSARPSSKPLLAVQIDDLLTLASRFVGEERARQSFIRFAYRQGKGFNPNQNADGDWIEHTERLLAGVLGTSSTRAVVKAAIEGRDMQLEDVVRIADEASEVLQFNRALLQGAIENINQGISVVDQNL | not soluble
MAMSLREELWLWKKEKLAEHVANNLRKKKHEVWIARDREEILERVKELIPEGATVSAGGSLTLADTGVIELLRSGRYNFLDRAAAKTREEVEEIYRKSFWADYYFTSVNAITEDGKLVFLDGNGNRVAAVVFGPKNVVVIASVNKVVKDVEEARERLRYISPMNSKRLNLETPCTKTGFCADCSSPQRICDYFLVVESGVRQPGRFKVILTLEDFGLLEHHHHHH | not soluble
MGSDKIHHHHHHMAADHVHCASCGQPLTGSYYVLINRPERFCPQCIATRPRCSTCGAPLGNHFWKLHDGRQQCDACHAVAIYDPVQAQHLFQQTAGMLAEGMGLRLHVGVAFRLVDAPTMARLRGPTPPGQDTLGLYRRQNHVRVIYLLYGLPTLIFRITAAHEYAHAWQAEHCPLLRNEFLREGHAEWVAYQHLLQLGSHKAAARMLDENHPYHEPLRYLLQLEAQLGIEGVNRYMMRVDIE | not soluble
GSNSLMERIHEQIKKGELALFYLQEQINHFEEKPTKEMKDKIVAEMDTIIAMIDGVRGVLDRLMQRKDLDIFEQYNLEMAKKSGDILERDLKKEEARVKKIEV | soluble

Source: the DeepSol protein solubility set
